Experimental data published in patent publication US20240116985A1 (published 2024).
Starred links: 1 amine or outer side, 2 acyl side, 3 side chain; linkers in the order of their positions; H or OH if unused. Positions of bridges follow the written chain, without caps; N, C: chain ends. Non-standard residues stand in square brackets, D forms with d. Primed or numbered codes have the meaning given here. No end group written: not given here. *: point of attachment. PyrS2(3) = (S)-3-amino-1-((pent-4-en-1-yloxy)carbonyl)pyrrolidine-3-carboxylic acid, stapling residue, C=CCCCOC(=O)N1CC[C@@](N[*:1])(C(=O)[*:2])C1; PyrS2″ = (S)-3-amino-1-((pent-4-en-1-yloxy)carbonyl)pyrrolidine-3-carboxylic acid (stapling residue), C=CCCCOC(=O)N1CC[C@@](N[*:1])(C(=O)[*:2])C1; B5(18) = 2,2-bis(4-pentenyl)glycine (2-amino-2-(pent-4-en-1-yl)hept-6-enoic acid), stitching residue, C=CCCCC(CCCC=C)(N[*:1])C(=O)[*:2]; B5(4) = 2,2-bis(4-pentenyl)glycine = 2-amino-2-(pent-4-en-1-yl)hept-6-enoic acid (stitching residue), C=CCCCC(CCCC=C)(N[*:1])C(=O)[*:2]; B5(21) = 2-amino-2-(pent-4-en-1-yl)hept-6-enoic acid, bis(4-pentenyl)glycine (stitching residue), C=CCCCC(CCCC=C)(N[*:1])C(=O)[*:2]; TfeGA = (S)-2-amino-3-((carboxymethyl)(2,2,2-trifluoroethyl)amino)propanoic acid, O=C([C@H](CN(CC(=O)[*:3])CC(F)(F)F)N[*:1])[*:2]; PyrS2 = (S)-3-amino-1-((pent-4-en-1-yloxy)carbonyl)pyrrolidine-3-carboxylic acid, C=CCCCOC(=O)N1CC[C@@](N[*:1])(C(=O)[*:2])C1; B5(19) = 2-amino-2-(pent-4-en-1-yl)hept-6-enoic acid (bis(4-pentenyl)glycine), C=CCCCC(CCCC=C)(N[*:1])C(=O)[*:2]; TriAzDap = Dap whose side chain is a 1H-1,2,3-triazol-1-yl bearing the bracketed 4-substituent; B5 = 2-amino-2-(pent-4-en-1-yl)hept-6-enoic acid, C=CCCCC(CCCC=C)(N[*:1])C(=O)[*:2]; Phe(3-COOH) = N[C@@H](Cc1cccc(C(=O)O)c1)C(=O)O; Phe(2-CF3) = N[C@@H](Cc1ccccc1C(F)(F)F)C(=O)O; Phe(3,4-F2) = N[C@@H](Cc1ccc(F)c(F)c1)C(=O)O; Phe(2-Cl) = N[C@@H](Cc1ccccc1Cl)C(=O)O; Bta = N[C@@H](Cc1csc2ccccc12)C(=O)O; αAllylPro = C=CC[C@@]1(C(=O)O)CCCN1; tBuAla = CC(C)(C)C[C@H](N)C(=O)O; 3Thi = N[C@@H](Cc1ccsc1)C(=O)O; hSer = N[C@@H](CCO)C(=O)O; MorphCH2 = C1CN(C*)CCO1

T1: full-length beta-Catenin (Uniprot ID P35222) (Homo sapiens (Human), UniProt P35222 2-781)
T1 construct: also called bCat; B-Catenin
T1 sequence: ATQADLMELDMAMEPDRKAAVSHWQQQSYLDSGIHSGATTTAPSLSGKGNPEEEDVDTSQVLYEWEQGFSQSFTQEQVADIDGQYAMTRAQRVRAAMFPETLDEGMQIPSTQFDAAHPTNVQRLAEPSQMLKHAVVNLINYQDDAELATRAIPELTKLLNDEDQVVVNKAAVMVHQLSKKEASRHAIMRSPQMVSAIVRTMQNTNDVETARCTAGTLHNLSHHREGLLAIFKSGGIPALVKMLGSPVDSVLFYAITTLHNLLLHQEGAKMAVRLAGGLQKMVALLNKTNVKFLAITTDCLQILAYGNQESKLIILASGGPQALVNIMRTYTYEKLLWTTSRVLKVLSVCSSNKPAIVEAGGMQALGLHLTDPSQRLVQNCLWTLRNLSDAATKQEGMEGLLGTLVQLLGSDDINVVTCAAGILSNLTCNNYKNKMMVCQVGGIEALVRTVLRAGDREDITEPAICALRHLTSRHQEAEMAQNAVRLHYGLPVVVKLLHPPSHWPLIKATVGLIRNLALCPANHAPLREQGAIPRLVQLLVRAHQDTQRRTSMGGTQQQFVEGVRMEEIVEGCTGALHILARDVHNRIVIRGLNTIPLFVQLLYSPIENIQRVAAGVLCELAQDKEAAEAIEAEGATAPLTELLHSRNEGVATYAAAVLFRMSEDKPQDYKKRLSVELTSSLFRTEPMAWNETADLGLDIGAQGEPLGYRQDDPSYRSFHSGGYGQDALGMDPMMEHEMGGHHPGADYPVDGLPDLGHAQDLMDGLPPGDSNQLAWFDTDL

T2: beta-catenin (Homo sapiens (Human), UniProt P35222 1-781)
T2 construct: The FP protocol says full-length beta-Catenin (Uniprot ID P35222); also called full-length beta-Catenin; bCat
T2 sequence: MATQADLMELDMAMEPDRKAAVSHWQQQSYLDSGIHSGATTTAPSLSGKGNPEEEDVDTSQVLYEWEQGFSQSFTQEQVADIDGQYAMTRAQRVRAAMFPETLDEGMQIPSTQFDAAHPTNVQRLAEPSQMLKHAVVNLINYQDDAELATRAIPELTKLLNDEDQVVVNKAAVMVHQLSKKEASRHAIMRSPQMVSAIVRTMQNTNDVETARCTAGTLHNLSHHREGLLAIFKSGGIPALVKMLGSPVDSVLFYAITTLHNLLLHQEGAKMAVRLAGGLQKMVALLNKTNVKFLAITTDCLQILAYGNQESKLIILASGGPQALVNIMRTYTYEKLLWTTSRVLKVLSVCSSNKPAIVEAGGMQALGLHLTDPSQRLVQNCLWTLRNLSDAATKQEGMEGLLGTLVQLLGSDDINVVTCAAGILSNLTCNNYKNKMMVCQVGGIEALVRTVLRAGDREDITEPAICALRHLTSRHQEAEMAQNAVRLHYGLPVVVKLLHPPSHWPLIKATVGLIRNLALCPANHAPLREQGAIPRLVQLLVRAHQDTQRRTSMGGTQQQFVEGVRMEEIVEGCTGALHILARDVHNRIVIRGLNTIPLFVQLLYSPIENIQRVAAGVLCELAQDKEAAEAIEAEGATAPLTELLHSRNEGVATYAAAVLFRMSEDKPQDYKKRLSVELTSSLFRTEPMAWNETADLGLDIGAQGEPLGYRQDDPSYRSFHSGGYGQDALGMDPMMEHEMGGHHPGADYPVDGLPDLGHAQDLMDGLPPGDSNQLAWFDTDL

T3: B-cat-Halo (beta-catenin HaloTag NanoBRET construct expressed in HEK293 cells) (UniProt P35222 1-781)
T3 sequence (looked up): T2 sequence

T4: beta-catenin (in DLD1 TCF/LEF luciferase reporter cells) (UniProt P35222 1-781)
T4 sequence (looked up): T2 sequence

T5: Bcat-Halo (UniProt P35222 1-781)
T5 sequence (looked up): T2 sequence

B1: I-1141 (peptide)
peptide: Ac-[αAllylPro]DF[B5]DDAAFS[PyrS2][Phe(2-Cl)][Bta]T-NH2
modifications: staple 1-4, 4-11
notes: Stapled (stitched) peptide by olefin metathesis; E/Z isomer(s) of the staples not assigned
B2: I-1146 (peptide)
peptide: Ac-[αAllylPro]DF[B5]DDAAFL[PyrS2][Phe(2-Cl)][Bta][dT]-NH2
modifications: staple 1-4, 4-11
notes: as for B1
B3: I-1143 (peptide)
peptide: Ac-[αAllylPro]DF[B5]DDAAFS[PyrS2][Phe(2-Cl)][Bta][hSer]-NH2
modifications: staple 1-4, 4-11
notes: as for B1
B4: I-1144 (peptide)
peptide: Ac-[αAllylPro]DF[B5]DDAAFS[PyrS2][Phe(2-Cl)][Bta]L-NH2
modifications: staple 1-4, 4-11
notes: as for B1
B5: I-1145 (peptide)
peptide: Ac-[αAllylPro]DF[B5]DDAAFL[PyrS2][Phe(2-Cl)][Bta]T-NH2
modifications: staple 1-4, 4-11
notes: as for B1
B6: I-1142 (peptide)
peptide: Ac-[αAllylPro]DF[B5]DDAAFS[PyrS2][Phe(2-Cl)][Bta][dT]-NH2
modifications: staple 1-4, 4-11
notes: as for B1
B7: I-1418 (peptide)
peptide: Ac-[αAllylPro]DL[B5(4)]DDAAFL[PyrS2″][Phe(2-Cl)][Bta]L-NH2
modifications: staple 1-4, 4-11; also: staple isomer composition of earlier HPLC peak
notes: Stapled peptide; staple isomer composition of the earlier HPLC peak

molecular target: T1, full-length beta-Catenin (Uniprot ID …); experiment: fluorescence polarization competition, 5FAM-TCF4 10-53 probe on full-length beta-catenin
Method: The plate was incubated protected from light for 60 minutes at 20° C. prior to read. Reads were performed on a CLARIOstar plate reader (BMG Labtech) in duplicate, and data were fitted to a 1:1 binding model with hill slope using an in-house script. All provided concentrations are final concentrations.

Point of comparison: B2, EC50 33 nM. Against it:
- B1 — 2.5-fold lower, 13 nM
- B3 — 2.8-fold lower, 12 nM
- B4 — within 1.5-fold, 28 nM
- B5 — 1.8-fold lower, 18 nM
- B6 — 1.5-fold lower, 22 nM

molecular target: T2, beta-catenin; experiment: fluorescence polarization competition; full-length beta-catenin with 5FAM-TCF4(10-53) probe as competitor
Procedure, shortened: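 Readings followed a light-protected 60-minute incubation at 20° C. Each read was done in duplicate. Curves were fit with a 1:1 binding model including hill slope, and stated concentrations are final.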

Point of comparison: Ac-[αAllylPro]DL[B5(4)]DDAAFL[PyrS2″][Phe(2-Cl)][Bta]L-NH2 (staple 1-4, 4-11; also: staple isomer composition of earlier HPLC peak, stapled peptide), EC50 106 nM. Against it:
- Ac-[αAllylPro]DS[B5(4)]DDAAFL[PyrS2][Phe(2-Cl)][Bta]L-NH2 (staple 1-4, 4-11, stapled peptide) [I-1423] — 3.7-fold higher, 389 nM
- Ac-[αAllylPro]DN[B5(4)]DDAAFL[PyrS2″][Phe(2-Cl)][Bta]L-NH2 (staple 1-4, 4-11, stapled peptide) [I-1422] — 3.7-fold higher, 388 nM
- Ac-[αAllylPro]DL[B5(19)]DDAAFL[PyrS2]F[Bta]Q-NH2 (staple 1-4, 4-11, stapled peptide) [I-1402] — 12-fold lower, 9 nM
- Ac-[αAllylPro]DT[B5(4)]DDAAFL[PyrS2][Phe(2-Cl)][Bta]L-NH2 (staple 1-4, 4-11, stapled peptide) [I-1424] — 2.2-fold higher, 235 nM
- Ac-[αAllylPro]DL[B5(4)]DDAAFL[PyrS2″][Phe(2-Cl)][Bta]L-NH2 (staple 1-4, 4-11; also: staple isomer composition of later HPLC peak, stapled peptide) [I-1419] — within 1.5-fold, 152 nM

molecular target: T3, B-cat-Halo (beta-catenin HaloTag …); experiment: cell-based or functional assay

Point of comparison: Ac-[αAllylPro]D[tBuAla][B5(18)]D[TfeGA]AAF[TriAzDap](SO2MorphCH2)[PyrS2(3)][3Thi][Bta]Q-NH2 (staple 1-4, 4-11; not fully specified) [I-1868], “NanoBRET Abs IC50” value 39600 nM. Against it:
- Ac-[αAllylPro]D[tBuAla][B5(18)]D[TfeGA]AAF[TriAzDap](CH2Ppz)[PyrS2(3)][3Thi][Bta]Q-NH2 (staple 1-4, 4-11; not fully specified) [I-1864] — not separable, > 20000 nM
- Ac-[αAllylPro]D[tBuAla][B5(18)]D[TfeGA]AAF[TriAzDap](CH2Ppz)[PyrS2(3)][3Thi][Bta]Q-NH2 (staple 1-4, 4-11; not fully specified) [I-1863] — within 1.5-fold, 37400 nM
- Ac-[αAllylPro]D[tBuAla][B5(18)]D[TfeGA]AAF[TriAzDap](MorphCH2)[PyrS2(3)][3Thi][Bta]Q-NH2 (staple 1-4, 4-11; not fully specified) [I-1866] — not separable, > 20000 nM
- Ac-[αAllylPro]D[tBuAla][B5(18)]D[TfeGA]AAF[TriAzDap](MorphCH2)[PyrS2(3)][3Thi][Bta]Q-NH2 (staple 1-4, 4-11; not fully specified) [I-1865] — not separable, > 20000 nM
- Ac-[αAllylPro]D[tBuAla][B5(18)]D[TfeGA]AAF[TriAzDap](MorphCH2)[PyrS2(3)][3Thi][Bta]Q-NH2 (staple 1-4, 4-11; not fully specified) [I-1867] — 2.4-fold lower, 16400 nM

molecular target: T4, beta-catenin (in DLD1 TCF/LEF …); experiment: cell-based or functional assay

Point of comparison: [αAllylPro]D[tBuAla][B5(4)]D[Phe(3-COOH)]AAFF[PyrS2″][Phe(2-CF3)][Bta]Q-NH2 (staple 1-4, 4-11) [I-1341], “DLD1 4% Abs IC50” value 3200 nM. Against it:
- [αAllylPro]D[tBuAla][B5]D[Phe(3-COOH)]AAFL[PyrS2][Phe(2-CF3)][Bta]S-NH2 (staple 1-4, 4-11) [I-1336] — 4.6-fold lower, 700 nM
- [αAllylPro]D[tBuAla][B5(4)]D[Phe(3-COOH)]AAFF[PyrS2″][Phe(2-Cl)][Bta]Q-NH2 (staple 1-4, 4-11) [I-1338] — within 1.5-fold, 3400 nM

molecular target: T5, Bcat-Halo; experiment: cell-based or functional assay

Point of comparison: Ac-[αAllylPro]D[tBuAla][B5(4)]DDAAFL[PyrS2][3Thi]WQ-NH2 (staple 1-4, 4-11) [I-1431], “NanoBRET Abs IC50” value 14600 nM. Against it:
- Ac-[αAllylPro]D[tBuAla][B5(4)]DDAAFL[PyrS2][3Thi][Phe(3,4-F2)]S-NH2 (staple 1-4, 4-11) [I-1428] — 2.8-fold higher, 40200 nM
- Ac-[αAllylPro]D[tBuAla][B5(4)]DDAAFL[PyrS2][3Thi][Phe(3,4-F2)]Q-NH2 (staple 1-4, 4-11) [I-1427] — 2.1-fold higher, 30400 nM
- Ac-[αAllylPro]DS[B5(21)]DDAAFL[PyrS2″][3Thi][Bta]L-NH2 (staple 1-4, 4-11) [I-1414] — higher, > 20000 nM
- B7 — higher, > 20000 nM
- Ac-[αAllylPro]D[tBuAla][B5(4)]DDAAFL[PyrS2][3Thi]WS-NH2 (staple 1-4, 4-11) [I-1432] — within 1.5-fold, 14500 nM
